This note sets out measurements from the supplement of paper PMC9112550, “Optimization of the antimicrobial peptide Bac7 by deep mutational scanning” (BMC Biology, 2022).
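Also: peptides expressed intracellularly from a pBAD plasmid library in pooled LB shake-flask culture, induced with 0.3% L-arabinose, DNA abundance read by NGS, three biological replicates, DESeq2 with apeglm shrinkage.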

In the data set the test system is Escherichia coli TOP10. Kind of data set: shrunken log2 fold change of peptide-encoding DNA abundance (4.5 h post-induction vs induction); higher = less antimicrobial activity (less host growth inhibition). The conditions noted are these: time post-induction: 4.5 h; library: site-saturation at positions 5, 18, 19, 20.
For the sequence RRIRDRPPRLPRPRPRPNAIPRP, the “shrunken log2 fold change” value was 0.13.

In the case of RRIRWRPPRLPRPRPRPHMWPRP, the “shrunken log2 fold change” value was -0.138.

RRIRVRPPRLPRPRPRPQFGPRP: the “shrunken log2 fold change” value was -0.018.

For RRIRTRPPRLPRPRPRPCHRPRP, the “shrunken log2 fold change” value was -0.000687.

Consider RRIRRRPPRLPRPRPRPHPPPRP, for which the “shrunken log2 fold change” value was 0.746.

For RRIRTRPPRLPRPRPRPIWIPRP, the “shrunken log2 fold change” value is -0.00704.

RRIRERPPRLPRPRPRPVEWPRP: the “shrunken log2 fold change” value is -0.00804.

On to RRIRYRPPRLPRPRPRPPIVPRP, for which the “shrunken log2 fold change” value was -0.756.

Take RRIRNRPPRLPRPRPRPAEWPRP: the “shrunken log2 fold change” value came to 0.412.

On to RRIRVRPPRLPRPRPRPMVTPRP, for which the “shrunken log2 fold change” value is -0.043.

As to RRIRPRPPRLPRPRPRPCWEPRP, the “shrunken log2 fold change” value is -0.0268.

Consider RRIRNRPPRLPRPRPRPMFGPRP, for which the “shrunken log2 fold change” value is -0.23.

In the case of RRIRERPPRLPRPRPRPAYWPRP, the “shrunken log2 fold change” value is 0.000956.

Regarding RRIRNRPPRLPRPRPRPHISPRP, the “shrunken log2 fold change” value was -0.0617.

As for RRIRRRPPRLPRPRPRPHTPPRP, the “shrunken log2 fold change” value was -0.039.

In the case of RRIRPRPPRLPRPRPRPDIHPRP, the “shrunken log2 fold change” value was -0.458.

Consider RRIRWRPPRLPRPRPRPSSTPRP, for which the “shrunken log2 fold change” value is 0.0549.

With RRIRYRPPRLPRPRPRPNRIPRP, the “shrunken log2 fold change” value was -0.815.

Take RRIRSRPPRLPRPRPRPKECPRP: the “shrunken log2 fold change” value is -0.043.

On to RRIRARPPRLPRPRPRPMFLPRP, for which the “shrunken log2 fold change” value is 0.00213.

As for RRIRTRPPRLPRPRPRPDKGPRP, the “shrunken log2 fold change” value worked out at 0.0109.

As for RRIRYRPPRLPRPRPRPCDVPRP, the “shrunken log2 fold change” value is -0.739.

Consider RRIRFRPPRLPRPRPRPHEFPRP, for which the “shrunken log2 fold change” value is -0.0308.

For the sequence RRIRCRPPRLPRPRPRPWAQPRP, the “shrunken log2 fold change” value was -0.211.

RRIRCRPPRLPRPRPRPVIYPRP: the “shrunken log2 fold change” value is -0.493.

In the case of RRIRIRPPRLPRPRPRPSVMPRP, the “shrunken log2 fold change” value was -0.286.

Consider RRIRYRPPRLPRPRPRPFSDPRP, for which the “shrunken log2 fold change” value was -0.03.

Consider RRIRARPPRLPRPRPRPFWIPRP, for which the “shrunken log2 fold change” value is -0.0619.

Turning to RRIRARPPRLPRPRPRPCHKPRP, the “shrunken log2 fold change” value is -0.259.

As to RRIRWRPPRLPRPRPRPRSDPRP, the “shrunken log2 fold change” value stood at 0.618.

Consider RRIRARPPRLPRPRPRPRYNPRP, for which the “shrunken log2 fold change” value was -0.487.

RRIRQRPPRLPRPRPRPERHPRP: the “shrunken log2 fold change” value came to 0.181.

Turning to RRIRIRPPRLPRPRPRPYYPPRP, the “shrunken log2 fold change” value was -1.36.

For the sequence RRIRKRPPRLPRPRPRPDFLPRP, the “shrunken log2 fold change” value came to 0.179.

Turning to RRIRFRPPRLPRPRPRPDGWPRP, the “shrunken log2 fold change” value came out at 0.13.

Take RRIRWRPPRLPRPRPRPDTMPRP: the “shrunken log2 fold change” value turned out to be 0.19.

Turning to RRIRERPPRLPRPRPRPGFQPRP, the “shrunken log2 fold change” value is -0.104.

Take RRIRTRPPRLPRPRPRPNVRPRP: the “shrunken log2 fold change” value turned out to be 0.075.

For RRIRRRPPRLPRPRPRPGQQPRP, the “shrunken log2 fold change” value was determined as 0.119.

Consider RRIRDRPPRLPRPRPRPHDPPRP, for which the “shrunken log2 fold change” value is -0.147.

As for RRIRARPPRLPRPRPRPGDYPRP, the “shrunken log2 fold change” value came to 0.226.

Regarding RRIRGRPPRLPRPRPRPCDKPRP, the “shrunken log2 fold change” value was 0.297.

Regarding RRIRQRPPRLPRPRPRPWAHPRP, the “shrunken log2 fold change” value is -0.0595.

Consider RRIRRRPPRLPRPRPRPRFGPRP, for which the “shrunken log2 fold change” value was found to be 0.438.

In the case of RRIRFRPPRLPRPRPRPTQSPRP, the “shrunken log2 fold change” value was determined as 0.691.

Take RRIRERPPRLPRPRPRPKATPRP: the “shrunken log2 fold change” value is 0.205.

On to RRIRVRPPRLPRPRPRPSYYPRP, for which the “shrunken log2 fold change” value was -0.674.

On to RRIRMRPPRLPRPRPRPGQVPRP, for which the “shrunken log2 fold change” value was found to be 0.418.

As for RRIRRRPPRLPRPRPRPINKPRP, the “shrunken log2 fold change” value is -0.431.

On to RRIRRRPPRLPRPRPRPWADPRP, for which the “shrunken log2 fold change” value is -0.143.

With RRIRQRPPRLPRPRPRPLDYPRP, the “shrunken log2 fold change” value came out at 0.13.

Take RRIRNRPPRLPRPRPRPDHAPRP: the “shrunken log2 fold change” value was -0.0118.

Turning to RRIRIRPPRLPRPRPRPFPDPRP, the “shrunken log2 fold change” value was -0.131.

RRIRPRPPRLPRPRPRPLKGPRP: the “shrunken log2 fold change” value was 0.045.

With RRIRQRPPRLPRPRPRPVRDPRP, the “shrunken log2 fold change” value worked out at 0.556.

In the case of RRIRKRPPRLPRPRPRPETHPRP, the “shrunken log2 fold change” value turned out to be 0.736.

With RRIRSRPPRLPRPRPRPYAPPRP, the “shrunken log2 fold change” value is -0.205.

As to RRIRGRPPRLPRPRPRPCIVPRP, the “shrunken log2 fold change” value was determined as 0.201.

For RRIRTRPPRLPRPRPRPMHGPRP, the “shrunken log2 fold change” value was -0.0017.

Turning to RRIRLRPPRLPRPRPRPIALPRP, the “shrunken log2 fold change” value was -0.0572.

Take RRIRSRPPRLPRPRPRPAQIPRP: the “shrunken log2 fold change” value is -0.0853.

As for RRIRWRPPRLPRPRPRPQLTPRP, the “shrunken log2 fold change” value amounted to 0.325.

On to RRIRQRPPRLPRPRPRPWLCPRP, for which the “shrunken log2 fold change” value was -0.0571.

For the sequence RRIRYRPPRLPRPRPRPMFNPRP, the “shrunken log2 fold change” value was -1.14.

RRIRPRPPRLPRPRPRPSPQPRP: the “shrunken log2 fold change” value was 0.2.

As to RRIRWRPPRLPRPRPRPVITPRP, the “shrunken log2 fold change” value stood at 0.362.

Turning to RRIRGRPPRLPRPRPRPWCRPRP, the “shrunken log2 fold change” value worked out at 0.195.

Take RRIRFRPPRLPRPRPRPSNIPRP: the “shrunken log2 fold change” value was -0.864.

Consider RRIRRRPPRLPRPRPRPAPTPRP, for which the “shrunken log2 fold change” value was found to be 0.793.

For the sequence RRIRNRPPRLPRPRPRPRAVPRP, the “shrunken log2 fold change” value worked out at 1.21.

For RRIRHRPPRLPRPRPRPYQHPRP, the “shrunken log2 fold change” value is -0.0148.

RRIRLRPPRLPRPRPRPCTWPRP: the “shrunken log2 fold change” value stood at 0.0461.

On to RRIRLRPPRLPRPRPRPGNIPRP, for which the “shrunken log2 fold change” value is -0.0276.

RRIRKRPPRLPRPRPRPKIAPRP: the “shrunken log2 fold change” value came out at 0.35.

In the case of RRIRLRPPRLPRPRPRPIYSPRP, the “shrunken log2 fold change” value turned out to be 0.0408.

With RRIRYRPPRLPRPRPRPTAMPRP, the “shrunken log2 fold change” value amounted to 0.133.

Take RRIRFRPPRLPRPRPRPSEAPRP: the “shrunken log2 fold change” value was -0.0845.

Take RRIRWRPPRLPRPRPRPGDVPRP: the “shrunken log2 fold change” value came out at 0.0583.

In the case of RRIRRRPPRLPRPRPRPCWQPRP, the “shrunken log2 fold change” value came out at 0.285.

As to RRIRIRPPRLPRPRPRPFNRPRP, the “shrunken log2 fold change” value stood at 0.0284.

On to RRIRWRPPRLPRPRPRPMRTPRP, for which the “shrunken log2 fold change” value stood at 0.273.

For the sequence RRIRKRPPRLPRPRPRPDHEPRP, the “shrunken log2 fold change” value was -0.013.

Take RRIRMRPPRLPRPRPRPHKQPRP: the “shrunken log2 fold change” value amounted to 0.0796.

Regarding RRIRVRPPRLPRPRPRPVVFPRP, the “shrunken log2 fold change” value amounted to 0.00477.

Consider RRIRWRPPRLPRPRPRPVRAPRP, for which the “shrunken log2 fold change” value amounted to 0.636.

As for RRIRVRPPRLPRPRPRPSCCPRP, the “shrunken log2 fold change” value was -0.133.

With RRIRGRPPRLPRPRPRPCHGPRP, the “shrunken log2 fold change” value is -0.355.

With RRIRERPPRLPRPRPRPFMAPRP, the “shrunken log2 fold change” value was -0.891.

For RRIRWRPPRLPRPRPRPPQWPRP, the “shrunken log2 fold change” value turned out to be 0.179.

As for RRIRDRPPRLPRPRPRPISAPRP, the “shrunken log2 fold change” value was 0.0787.

RRIRDRPPRLPRPRPRPLIRPRP: the “shrunken log2 fold change” value was -0.0502.

On to RRIRNRPPRLPRPRPRPDPGPRP, for which the “shrunken log2 fold change” value turned out to be 0.0569.

As for RRIRYRPPRLPRPRPRPKRTPRP, the “shrunken log2 fold change” value was -0.0162.

Turning to RRIRGRPPRLPRPRPRPDCHPRP, the “shrunken log2 fold change” value was determined as 0.217.

Regarding RRIRPRPPRLPRPRPRPSVMPRP, the “shrunken log2 fold change” value is -0.123.

RRIRQRPPRLPRPRPRPKYHPRP: the “shrunken log2 fold change” value is -0.171.

As to RRIRMRPPRLPRPRPRPEFIPRP, the “shrunken log2 fold change” value was found to be 0.01.

Turning to RRIRCRPPRLPRPRPRPTFIPRP, the “shrunken log2 fold change” value was -0.307.

RRIRGRPPRLPRPRPRPDWKPRP: the “shrunken log2 fold change” value was found to be 0.000125.

As to RRIRSRPPRLPRPRPRPIMVPRP, the “shrunken log2 fold change” value is -0.644.

On to RRIRMRPPRLPRPRPRPPKTPRP, for which the “shrunken log2 fold change” value was 0.891.

With RRIRIRPPRLPRPRPRPVFWPRP, the “shrunken log2 fold change” value was found to be 0.201.

Consider RRIRFRPPRLPRPRPRPNPKPRP, for which the “shrunken log2 fold change” value amounted to 0.0977.

As for RRIRRRPPRLPRPRPRPDCSPRP, the “shrunken log2 fold change” value was -0.27.

For RRIRWRPPRLPRPRPRPWVEPRP, the “shrunken log2 fold change” value was 0.0386.

Consider RRIRQRPPRLPRPRPRPCMQPRP, for which the “shrunken log2 fold change” value is -0.238.

Turning to RRIRERPPRLPRPRPRPDRDPRP, the “shrunken log2 fold change” value was -0.0369.

For RRIRFRPPRLPRPRPRPYQWPRP, the “shrunken log2 fold change” value was -0.655.

Consider RRIRMRPPRLPRPRPRPAVNPRP, for which the “shrunken log2 fold change” value was found to be 0.0731.

With RRIRARPPRLPRPRPRPQAMPRP, the “shrunken log2 fold change” value was determined as 0.132.

RRIRFRPPRLPRPRPRPAESPRP: the “shrunken log2 fold change” value is -0.117.

For RRIRMRPPRLPRPRPRPDIAPRP, the “shrunken log2 fold change” value stood at 0.0562.

Consider RRIRWRPPRLPRPRPRPQECPRP, for which the “shrunken log2 fold change” value was -0.0185.

Regarding RRIRWRPPRLPRPRPRPQALPRP, the “shrunken log2 fold change” value came out at 0.113.

Regarding RRIRNRPPRLPRPRPRPTKYPRP, the “shrunken log2 fold change” value is -0.564.

For the sequence RRIRMRPPRLPRPRPRPMADPRP, the “shrunken log2 fold change” value amounted to 1.11.

On to RRIRGRPPRLPRPRPRPRASPRP, for which the “shrunken log2 fold change” value was 1.05.

RRIRKRPPRLPRPRPRPECQPRP: the “shrunken log2 fold change” value amounted to 0.57.

With RRIRYRPPRLPRPRPRPRGWPRP, the “shrunken log2 fold change” value was found to be 0.575.

Take RRIRKRPPRLPRPRPRPIEVPRP: the “shrunken log2 fold change” value came to 0.287.

Consider RRIRNRPPRLPRPRPRPGIYPRP, for which the “shrunken log2 fold change” value was -0.105.

Regarding RRIRCRPPRLPRPRPRPSTVPRP, the “shrunken log2 fold change” value was -0.443.

For the sequence RRIRKRPPRLPRPRPRPHMTPRP, the “shrunken log2 fold change” value was determined as 0.0202.

As to RRIRIRPPRLPRPRPRPPGAPRP, the “shrunken log2 fold change” value worked out at 0.431.

Regarding RRIRYRPPRLPRPRPRPHSDPRP, the “shrunken log2 fold change” value is -0.0292.
